{
  "source": "patent US20240360223A1",
  "about": "(DRAGONFLY THERAPEUTICS, published 2024)",
  "key": {"[1]": {"biological_target": "T1, human CD64 (human, UniProt P12314 16-288, limits assumed)", "T1 construct": "also called FcγRI", "T1 sequence (P12314 16-288 limits assumed)": "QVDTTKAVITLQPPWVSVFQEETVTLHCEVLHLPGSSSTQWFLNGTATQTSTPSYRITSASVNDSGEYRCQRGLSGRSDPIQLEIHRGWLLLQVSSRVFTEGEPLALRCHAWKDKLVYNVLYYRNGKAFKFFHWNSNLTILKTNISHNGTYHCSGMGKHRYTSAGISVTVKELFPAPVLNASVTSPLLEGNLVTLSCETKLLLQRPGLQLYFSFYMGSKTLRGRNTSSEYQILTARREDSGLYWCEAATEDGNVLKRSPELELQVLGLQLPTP", "assay": "SPR", "procedure": "Binding analyses as described in this Example were performed using SPR, as described in Example 4."}, "[2]": {"biological_target": "T2, cynomolgus FcRn (cynomolgus, UniProt Q8SPV9 24-297; Q8SPW0 21-119)", "T2 construct": "also called Cyno FcRn", "T2 sequence (Q8SPV9 24-297 limits assumed, chain 1 of 2)": "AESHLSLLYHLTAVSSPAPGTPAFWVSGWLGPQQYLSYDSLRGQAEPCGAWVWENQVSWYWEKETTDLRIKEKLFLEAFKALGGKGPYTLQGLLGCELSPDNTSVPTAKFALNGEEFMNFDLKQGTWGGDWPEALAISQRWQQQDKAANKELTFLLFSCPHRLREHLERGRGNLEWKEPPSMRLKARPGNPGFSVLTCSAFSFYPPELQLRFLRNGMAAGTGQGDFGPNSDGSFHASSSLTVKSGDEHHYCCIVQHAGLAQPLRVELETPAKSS", "T2 sequence (Q8SPW0 21-119 limits assumed, chain 2 of 2)": "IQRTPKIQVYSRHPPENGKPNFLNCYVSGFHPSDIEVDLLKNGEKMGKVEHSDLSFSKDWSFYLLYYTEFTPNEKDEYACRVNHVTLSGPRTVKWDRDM", "assay": "SPR, pH 6.0, steady state, average; pH 6.0; average of four replicates"}, "[3]": {"biological_target": "T3, human CD16a F158 (human, UniProt P08637 17-208)", "T3 sequence (P08637 17-208 limits assumed)": "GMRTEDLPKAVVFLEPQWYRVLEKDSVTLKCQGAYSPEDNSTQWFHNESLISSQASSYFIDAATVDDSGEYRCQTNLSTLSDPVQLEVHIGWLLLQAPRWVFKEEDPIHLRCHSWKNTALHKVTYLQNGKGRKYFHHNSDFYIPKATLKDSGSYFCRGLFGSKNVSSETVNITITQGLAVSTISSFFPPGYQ", "assay": "SPR, steady state, average"}, "[4]": {"biological_target": "T4, human CD16a V158 (human, UniProt P08637 17-208)", "T4 construct": "also called hCD16aV; hCD16a V158", "T4 sequence (P08637 17-208 F176V limits assumed)": "as the sequence (P08637 17-208 limits assumed) above, with F160V counted along it", "assay": "SPR, control"}, "[5]": {"biological_target": "T5, cynomolgus NKG2D (recombinant mFc-tagged dimer) (cynomolgus, UniProt P61252 78-216)", "T5 construct": "also called cyno NKG2D", "T5 sequence (looked up)": "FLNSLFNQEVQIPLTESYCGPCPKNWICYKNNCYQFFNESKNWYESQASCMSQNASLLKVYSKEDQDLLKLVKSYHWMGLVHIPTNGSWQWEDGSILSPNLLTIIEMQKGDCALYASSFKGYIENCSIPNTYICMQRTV", "assay": "SPR"}, "[6]": {"biological_target": "T6, cynomolgus CD16 (cynomolgus, UniProt Q8SPW2 17-208, limits assumed)", "T6 construct": "also called Cyno CD16; cynomolgus FcγRIII", "T6 sequence (Q8SPW2 17-208 limits assumed)": "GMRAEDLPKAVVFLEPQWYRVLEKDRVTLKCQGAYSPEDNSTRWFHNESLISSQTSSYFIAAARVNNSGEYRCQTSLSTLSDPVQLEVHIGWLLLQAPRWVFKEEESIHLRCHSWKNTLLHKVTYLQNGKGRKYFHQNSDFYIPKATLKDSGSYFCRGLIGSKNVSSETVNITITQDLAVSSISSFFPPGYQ", "assay": "SPR, average"}, "[7]": {"biological_target": "T3, human CD16a F158", "assay": "SPR, recombinant receptor; reference trastuzumab"}, "[8]": {"biological_target": "T7, human CD32b (human, UniProt P31994 46-217, limits assumed)", "T7 construct": "also called FcγRIIb", "T7 sequence (looked up)": "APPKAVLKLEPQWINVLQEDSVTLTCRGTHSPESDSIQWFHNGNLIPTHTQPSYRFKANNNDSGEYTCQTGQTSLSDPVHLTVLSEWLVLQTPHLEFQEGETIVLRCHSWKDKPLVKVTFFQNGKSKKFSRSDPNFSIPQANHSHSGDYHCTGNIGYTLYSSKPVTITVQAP", "assay": "SPR, recombinant receptor; reference trastuzumab"}, "[9]": {"biological_target": "T8, human CD16b (human, UniProt O75015 17-200, limits assumed)", "T8 construct": "also called FcγRIIIb", "T8 sequence (O75015 17-200 limits assumed)": "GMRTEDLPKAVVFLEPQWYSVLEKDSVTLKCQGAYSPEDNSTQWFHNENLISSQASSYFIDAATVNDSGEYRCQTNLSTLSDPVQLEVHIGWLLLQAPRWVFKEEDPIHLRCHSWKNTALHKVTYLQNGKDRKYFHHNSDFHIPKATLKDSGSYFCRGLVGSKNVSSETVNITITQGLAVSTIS", "assay": "SPR, recombinant receptor; reference trastuzumab"}, "[10]": {"biological_target": "T6, cynomolgus CD16", "assay": "SPR, recombinant receptor; reference trastuzumab"}, "[11]": {"biological_target": "T9, human CD32a R131 (human, UniProt P12318 36-218, limits assumed)", "T9 construct": "also called FcγRIIa R131", "T9 sequence (looked up)": "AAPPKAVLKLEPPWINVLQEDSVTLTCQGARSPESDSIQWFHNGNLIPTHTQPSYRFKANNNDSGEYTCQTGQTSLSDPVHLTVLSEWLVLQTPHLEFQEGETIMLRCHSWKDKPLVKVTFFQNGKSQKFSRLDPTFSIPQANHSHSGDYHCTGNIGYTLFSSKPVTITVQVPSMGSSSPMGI", "assay": "SPR, recombinant receptor; reference trastuzumab"}, "[12]": {"biological_target": "T4, human CD16a V158", "assay": "SPR, recombinant receptor; reference trastuzumab"}, "[13]": {"biological_target": "T10, human CD32a H131 (human, UniProt P12318 36-218, limits assumed)", "T10 sequence (looked up)": "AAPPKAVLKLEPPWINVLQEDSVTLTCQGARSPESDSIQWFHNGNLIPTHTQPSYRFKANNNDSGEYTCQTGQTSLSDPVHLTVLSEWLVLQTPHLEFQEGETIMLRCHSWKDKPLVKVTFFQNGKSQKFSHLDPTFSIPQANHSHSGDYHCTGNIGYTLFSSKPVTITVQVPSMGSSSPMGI", "assay": "SPR, recombinant receptor; reference trastuzumab"}, "[14]": {"biological_target": "T1, human CD64", "assay": "SPR, recombinant receptor; reference trastuzumab"}, "[15]": {"biological_target": "human FcRn (human, UniProt P55899 24-297; P61769 21-119)", "sequence (P55899 24-297 limits assumed, chain 1 of 2)": "as the sequence (Q8SPV9 24-297 limits assumed, chain 1 of 2) above, with D39N, Q44E, S99G, G189S, N190S, M217L, T269S counted along it", "sequence (P61769 21-119 limits assumed, chain 2 of 2)": "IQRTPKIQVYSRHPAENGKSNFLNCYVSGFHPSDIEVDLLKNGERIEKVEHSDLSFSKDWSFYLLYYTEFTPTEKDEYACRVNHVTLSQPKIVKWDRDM", "assay": "SPR, pH 6.0, steady state, average; pH 6.0; average of four replicates"}, "[16]": {"biological_target": "T11, BCMA expressed on C6 cells (UniProt Q02223 1-184, limits assumed)", "T11 construct": "whole, on cells; also called BCMA-C6; isogenic BCMA+ cells", "T11 sequence (looked up)": "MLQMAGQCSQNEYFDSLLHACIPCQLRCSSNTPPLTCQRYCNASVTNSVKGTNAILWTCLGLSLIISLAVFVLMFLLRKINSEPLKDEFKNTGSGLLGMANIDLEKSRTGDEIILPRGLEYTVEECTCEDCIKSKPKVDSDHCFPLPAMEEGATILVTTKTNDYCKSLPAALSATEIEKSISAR", "assay": "flow cytometry on BCMA-C6 cells, anti-human Fc-g-PE", "from_the_text": "A mAb with known BCMA specificity (EM901) was used as a positive control for BCMA detection."}, "[17]": {"biological_target": "T8, human CD16b", "assay": "SPR, steady state, average"}, "[18]": {"biological_target": "T12, human NKG2D (recombinant mFc-tagged dimer) (human, UniProt P26718 78-216)", "T12 construct": "also called hNKG2D", "T12 sequence (looked up)": "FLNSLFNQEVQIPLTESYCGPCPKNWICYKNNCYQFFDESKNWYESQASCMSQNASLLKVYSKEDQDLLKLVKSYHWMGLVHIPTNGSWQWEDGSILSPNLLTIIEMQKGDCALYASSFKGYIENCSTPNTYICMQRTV", "assay": "SPR, kinetics fit, average", "from_the_text": "NKG2D is a native dimer, therefore recombinant mFc-tagged NKG2D dimer was used for this experiment. Two different fits were utilized to obtain the equilibrium affinity data: steady state affinity fit and kinetic fit."}, "[19]": {"biological_target": "T13, cynomolgus monkey BAFF-R expressed on cells (cynomolgus monkey)", "T13 construct": "whole, on cells; also called cBAFF-R; cynoBAFF-R", "assay": "flow cytometry, cyno BAFF-R CHO cells"}, "[20]": {"biological_target": "T14, human BAFF-R expressed on cells (human, UniProt Q96RJ3 1-184)", "T14 construct": "Cell surface BAFF-R, endogenous on B cell lines and primary B cells or overexpressed on isogenic CHO cells; also called hBAFF-R; hBAFF-R-CHO", "assay": "blocking of BAFF-biotin on hBAFF-R CHO cells"}},
  "note": "Where “and” joins values, the source holds several entries; their conditions need not be identical. Identical values can stand only once.",
  "data": [
    {"binder": "AB1424/AB1612 F3′ TriNKET (bispecific antibody, human IgG1, kappa, Chain S: anti-BAFF-R scFv-CH2-CH3; chain H: anti-NKG2D VH-CH1-CH2-CH3; chain L: anti-NKG2D VL-CL; also called AB1612-002) not shown heavy: EVQLVESGGGLVKPGGSLRLSCAASGFTFSSYSMNWVRQAPGKGLEWVSSISSSSSYIYYADSVKGRFTISRDNAKNSLYLQMNSLRAEDTAVYYCARGAPIGAAAGWFDPWGQGTLVTVSSASTKGPSVFPLAPSSKSTSGGTAALGCLVKDYFPEPVTVSWNSGALTSGVHTFPAVLQSSGLYSLSSVVTVPSSSLGTQTYICNVNHKPSNTKVDKKVEPKSCDKTHTCPPCPAPELLGGPSVFLFPPKPKDTLMISRTPEVTCVVVDVSHEDPEVKFNWYVDGVEVHNAKTKPREEQYNSTYRVVSVLTVLHQDWLNGKEYKCKVSNKALPAPIEKTISKAKGQPREPQVCTLPPSRDELTENQVSLTCLVKGFYPSDIAVEWESNGQPENNYKTTPPVLDSDGSFFLYSWLTVDKSRWQQGNVFSCSVMHEALHNHYTQKSLSLSPG light: DIQMTQSPSSVSASVGDRVTITCRASQGISSWLAWYQQKPGKAPKLLIYAASSLQSGVPSRFSGSGSGTDFTLTISSLQPEDFATYYCQQGVSFPRTFGGGTKVEIKRTVAAPSVFIFPPSDEQLKSGTASVVCLLNNFYPREAKVQWKVDNALQSGNSQESVTEQDSKDSTYSLSSTLTLSKADYEKHKVYACEVTHQGLSSPVTKSFNRGEC", "values": [
      {"measurement": "Kd", "setting": "[1]", "result": "2.9 nM and 3.1 nM and 3.4 nM and 3.2 nM"},
      {"measurement": "koff", "setting": "[1]", "result": "0.00022 s⁻¹ and 0.00023 s⁻¹"},
      {"measurement": "kon", "setting": "[1]", "result": "77000 M⁻¹ s⁻¹ and 73000 M⁻¹ s⁻¹ and 69000 M⁻¹ s⁻¹ and 72000 M⁻¹ s⁻¹"},
      {"measurement": "Kd", "setting": "[2]", "result": 1000, "unit": "nM"},
      {"measurement": "Kd", "setting": "[3]", "result": 1350, "unit": "nM"},
      {"measurement": "Kd", "setting": "[4]", "result": 145, "unit": "nM"},
      {"measurement": "koff", "setting": "[4]", "result": 0.017, "unit": "s⁻¹"},
      {"measurement": "kon", "setting": "[4]", "result": 130000, "unit": "M⁻¹ s⁻¹"},
      {"measurement": "koff", "setting": "[5]", "result": "0.11 s⁻¹ and 0.1 s⁻¹"},
      {"measurement": "kon", "setting": "[5]", "result": "210000 M⁻¹ s⁻¹ and 200000 M⁻¹ s⁻¹"},
      {"measurement": "koff", "setting": "[6]", "result": 0.021, "unit": "s⁻¹"},
      {"measurement": "kon", "setting": "[6]", "result": 76000, "unit": "M⁻¹ s⁻¹"},
      {"measurement": "fold difference in binding against trastuzumab", "setting": "[7]", "result": "< 3", "unit": "fold"},
      {"measurement": "fold difference in binding against trastuzumab", "setting": "[8]", "result": "< 1.2", "unit": "fold"},
      {"measurement": "fold difference in binding against trastuzumab", "setting": "[9]", "result": "< 3", "unit": "fold"},
      {"measurement": "fold difference in binding against trastuzumab", "setting": "[10]", "result": "< 3", "unit": "fold"},
      {"measurement": "fold difference in binding against trastuzumab", "setting": "[11]", "result": "< 1.2", "unit": "fold"},
      {"measurement": "fold difference in binding against trastuzumab", "setting": "[12]", "result": "< 3", "unit": "fold"},
      {"measurement": "fold difference in binding against trastuzumab", "setting": "[13]", "result": "< 1.2", "unit": "fold"},
      {"measurement": "fold difference in binding against trastuzumab", "setting": "[14]", "result": "< 3", "unit": "fold"},
      {"measurement": "Kd", "setting": "[15]", "result": 1000, "unit": "nM"},
      {"measurement": "binding result", "setting": "[16]", "result": "no binding (tested: about 50 nM)"},
      {"measurement": "Kd", "setting": "[17]", "result": 6900, "unit": "nM"},
      {"measurement": "Kd", "setting": "[18]", "result": 456, "unit": "nM"},
      {"measurement": "EC50", "setting": "[19]", "result": 1.85, "unit": "nM"},
      {"measurement": "IC50", "setting": "[20]", "result": 6.76, "unit": "nM"}
    ]}
  ]
}
